The record followed here is IntAct's records for PubMed 9422760.

B1: Tyrosine-protein phosphatase non-receptor type 18 (Homo sapiens), Q99952 (parent)
chain: MSRSLDSARSFLERLEARGGREGAVLAGEFSDIQACSAAWKADGVCSTVAGSRPENVRKNRYKDVLPYDQTRVILSLLQEEGHSDYINGNFIRGVDGSLAYIATQGPLPHTLLDFWRLVWEFGVKVILMACREIENGRKRCERYWAQEQEPLQTGLFCITLIKEKWLNEDIMLRTLKVTFQKESRSVYQLQYMSWPDRGVPSSPDHMLAMVEEARRLQGSGPEPLCVHCSAGCGRTGVLCTVDYVRQLLLTQMIPPDFSLFDVVLKMRKQRPAAVQTEEQYRFLYHTVAQMFCSTLQNASPHYQNIKENCAPLYDDALFLRTPQALLAIPRPPGGVLRSISVPGSPGHAMADTYAVVQKRGAPAGAGSGTQTGTGTGTGARSAEEAPLYSKVTPRAQRPGAHAEDARGTLPGRVPADQSPAGSGAYEDVAGGAQTGGLGFNLRIGRPKGPRDPPAEWTRV
B2: Proline-serine-threonine phosphatase-interacting protein 1 (Homo sapiens), O43586 (parent)
chain: MMPQLQFKDAFWCRDFTAHTGYEVLLQRLLDGRKMCKDMEELLRQRAQAEERYGKELVQIARKAGGQTEINSLRASFDSLKQQMENVGSSHIQLALTLREELRSLEEFRERQKEQRKKYEAVMDRVQKSKLSLYKKAMESKKTYEQKCRDADDAEQAFERISANGHQKQVEKSQNKARQCKDSATEAERVYRQSIAQLEKVRAEWEQEHRTTCEAFQLQEFDRLTILRNALWVHSNQLSMQCVKDDELYEEVRLTLEGCSIDADIDSFIQAKSTGTEPPAPVPYQNYYDREVTPLTSSPGIQPSCGMIKRFSGLLHGSPKTTSLAASAASTETLTPTPERNEGVYTAIAVQEIQGNPASPAQEYRALYDYTAQNPDELDLSAGDILEVILEGEDGWWTVERNGQRGFVPGSYLEKL
partner: B1 chain

The first experiment covers variants of B1. The note with it: with ppip1_human PSTPIP1, O43586.
In the case of MSRSLDSARSFLERLEARGGREGAVLAGEFSDIQACSAAWKADGVCSTVAGSRPENVRKNRYKDVLPYDQTRVILSLLQEEGHSDYINGNFIRGVDGSLAYIATQGPLPHTLLDFWRLVWEFGVKVILMACREIENGRKRCERYWAQEQEPLQTGLFCITLIKEKWLNEDIMLRTLKVTFQKESRSVYQLQYMSWPDRGVPSSPDHMLAMVEEARRLQGSGPEPLCVHSSAGCGRTGVLCTVDYVRQLLLTQMIPPDFSLFDVVLKMRKQRPAAVQTEEQYRFLYHTVAQMFCSTLQNASPHYQNIKENCAPLYDDALFLRTPQALLAIPRPPGGVLRSISVPGSPGHAMADTYAVVQKRGAPAGAGSGTQTGTGTGTGARSAEEAPLYSKVTPRAQRPGAHAEDARGTLPGRVPADQSPAGSGAYEDVAGGAQTGGLGFNLRIGRPKGPRDPPAEWTRV [C229S], the “effect of a mutation on the interaction” value was “increasing interaction”.

The variants in another experiment derive from B1. The note with it: with ppip1_human PSTPIP1, O43586. The source holds these as a separate data set.
With MSRSLDSARSFLERLEARGGREGAVLAGEFSDIQACSAAWKADGVCSTVAGSRPENVRKNRYKDVLPYDQTRVILSLLQEEGHSDYINGNFIRGVDGSLAYIATQGPLPHTLLDFWRLVWEFGVKVILMACREIENGRKRCERYWAQEQEPLQTGLFCITLIKEKWLNEDIMLRTLKVTFQKESRSVYQLQYMSWPDRGVPSSPDHMLAMVEEARRLQGSGPEPLCVHCSAGCGRTGVLCTVDYVRQLLLTQMIPPDFSLFDVVLKMRKQRPAAVQTEEQYRFLYHTVAQMFCSTLQNASPHYQNIKENCAPLYDDALFLRTPQALLAIPRPPGGVLRSISVPGSPGHAMADTYAVVQKRGAPAGAGSGTQTGTGTGTGARSAEEAPLYSKVTPRAQRPGAHAEDARGTLPGRVPADQSPAGSGAYEDVAGGAQTGGLGFNLRIGRAKGPRDPPAEWTRV [P447A], the “effect of a mutation on the interaction” value was “disrupting interaction”.

Variants of B2 are the subject of another experiment. The note with it: with ptn18_human PTPN18, Q99952.
For W232A, the “effect of a mutation on the interaction” value is “disrupting interaction”.
